Results as given in patent publication US20070190024A1 (INSERM INSTITUT NATIONAL DE LA SANTE ET DE LA RECH, published 2007).
Substitutions are numbered along the chain they refer to. In names and notes the source's numbering stands. Blank lines part the entries; values can stand above or below the binder they belong to.

Experiments:
[1] = target: T1, murine high affinity IL-11 receptor complex (IL-11Rα with gp130) on 7TD1 cells (Class 2 sites) (mouse, UniProt Q64385 24-432; Q00560 23-917); assay: cell-based or functional assay
T1 sequence (looked up) 1: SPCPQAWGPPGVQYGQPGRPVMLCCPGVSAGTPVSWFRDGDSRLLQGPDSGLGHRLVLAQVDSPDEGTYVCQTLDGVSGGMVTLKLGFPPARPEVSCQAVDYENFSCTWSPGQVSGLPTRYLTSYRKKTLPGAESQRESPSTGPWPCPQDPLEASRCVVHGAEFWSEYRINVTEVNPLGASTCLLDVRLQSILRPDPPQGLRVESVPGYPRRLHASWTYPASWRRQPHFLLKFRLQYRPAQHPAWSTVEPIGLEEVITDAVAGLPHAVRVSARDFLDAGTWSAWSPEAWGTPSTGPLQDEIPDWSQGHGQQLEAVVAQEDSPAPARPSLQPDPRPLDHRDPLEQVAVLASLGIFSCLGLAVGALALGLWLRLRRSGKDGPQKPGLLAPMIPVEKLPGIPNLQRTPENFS
T1 sequence (looked up) 2: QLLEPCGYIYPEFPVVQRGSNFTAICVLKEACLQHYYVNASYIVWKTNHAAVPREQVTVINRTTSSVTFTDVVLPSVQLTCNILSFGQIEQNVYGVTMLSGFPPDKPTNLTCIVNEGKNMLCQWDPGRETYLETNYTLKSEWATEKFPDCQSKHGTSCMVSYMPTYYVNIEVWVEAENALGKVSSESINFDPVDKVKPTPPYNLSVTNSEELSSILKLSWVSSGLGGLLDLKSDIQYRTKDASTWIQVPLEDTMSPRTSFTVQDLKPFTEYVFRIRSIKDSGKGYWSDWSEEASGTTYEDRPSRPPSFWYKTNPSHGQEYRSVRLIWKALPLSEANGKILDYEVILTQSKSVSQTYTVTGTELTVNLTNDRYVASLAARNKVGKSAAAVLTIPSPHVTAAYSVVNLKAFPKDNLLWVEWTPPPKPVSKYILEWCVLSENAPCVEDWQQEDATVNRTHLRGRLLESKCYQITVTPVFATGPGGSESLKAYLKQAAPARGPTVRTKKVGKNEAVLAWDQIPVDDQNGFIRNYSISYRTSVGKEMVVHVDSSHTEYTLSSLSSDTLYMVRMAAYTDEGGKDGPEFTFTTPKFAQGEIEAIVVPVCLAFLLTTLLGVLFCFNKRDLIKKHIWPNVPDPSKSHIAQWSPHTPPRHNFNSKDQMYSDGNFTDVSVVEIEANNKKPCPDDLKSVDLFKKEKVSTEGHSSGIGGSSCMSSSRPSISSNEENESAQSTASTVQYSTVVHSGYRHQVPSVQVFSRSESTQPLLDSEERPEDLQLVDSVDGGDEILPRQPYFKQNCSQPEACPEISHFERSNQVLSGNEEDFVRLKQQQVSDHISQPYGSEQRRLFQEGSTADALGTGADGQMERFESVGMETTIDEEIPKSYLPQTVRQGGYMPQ

[2] = target: T1, murine high affinity IL-11 receptor …; assay: Scatchard analysis, 32P-labelled ligand on 7TD1 cells, Class 2 sites; unlabelled competitor FPΔIL-11
Experimental: (§1) Binding of ³²P-H/V-D/A on 7TD1 cells was carried out as described for the parental ³²P-FPΔIL-11 on B13Rα1 cells by Wang et al [Wang et al. (2002), cited supra, and incorporated by reference]. 7TD1 cells ([…]) were pre-incubated in culture medium lacking growth factor for 2 h and were washed 3 times with phosphate-buffered saline, pH 7.4 (PBS). For binding studies, radiolabelled H/V-D/A was added to cells at the indicated concentration in PBS containing 0.5% bovine serum albumin. The mixture was incubated at 4° C. for the appropriate time and bound radiolabelled H/V-D/A was separated from the free radioactivity by centrifugation at 3000 g for 1 min through a 0.2 ml layer of a mixture of 40% dioctyl phthalate and 60% dibutyl phthalate (Janssen Chimica, Beerse, Belgium). After quick freezing, the tip of each tube containing the cell pellet was cut-off and radioactivity was counted in a Beckman β-counter. Non-specific binding was determined by incubating cells with radiolabelled H/V-D/A in the presence of a 200-fold molar excess of unlabelled H/V-D/A. […]

[3] = target: T2, fusion protein of human IL-11R and IL-2 (IL-11R-IL-2) (human, UniProt Q14626 23-370; P60568 21-153, limits assumed); assay: SPR (BiaCore 2000), IL-11R-IL-2 amine-coupled to a CM5 chip
T2 construct: Amine-coupled to a CM5 chip at about 500 RU; also called human IL-11Rα-IL-2 fusion protein; recombinant human IL-11R-IL-2
Experimental: (§2) These experiments were performed with a BiaCore 2000 optical biosensor (BiaCore, Uppsala, Sweden). A fusion protein of human IL-11R and IL-2 (IL-11R-IL-2) [Blanc et al. (2000). Monoclonal antibodies against the human interleukin-11 receptor alpha-chain (IL-11Ralpha) and their use in studies of human mononuclear cells. J. Immunol. Methods 241, 43-59, the content of which is herein incorporated by reference] was coupled through primary amino groups to a carboxymethyl dextran flow cell (CM5) at a low immobilisation level (about 500 RU per flow cell) compatible with kinetic binding studies. Subsequent binding of parental FPΔIL-11 or mutein was carried out in Hepes-buffered saline (pH 7.4) at a flow rate of 10 μl/minute at room temperature.
(§3) In order to find out if mutagenesis and associated conformational change of H/V-D/A have an effect on its interaction with IL-11Rα, the association and dissociation kinetic constants (kₒₙ, koff) describing parent IL-11 and H/V-D/A mutein binding to human IL-11Rα were determined by surface plasmon resonance biosensor analysis using dextran-immobilized purified human IL-11Rα-IL-2 [Blanc et al. (2000), cited supra] fusion protein as matrix.

[4] = target: T3, murine IL-11Rα on 7TD1 cells (Class 1, low affinity sites; isolated IL-11Rα chains) (mouse, UniProt Q64385 24-432); assay: Scatchard analysis, 32P-labelled ligand on 7TD1 cells, Class 1 sites; unlabelled competitor FPΔIL-11
T3 construct: whole, on cells; also called 7TD1 Class 1 sites
T3 sequence (looked up): T1 sequence (looked up) 1
Experimental: as §1

[5] = target: T4, human IL-11 receptor (human IL-11Rα and human gp130) on B13Rα1 cells (human, UniProt Q14626 23-422; P40189 23-918); assay: Scatchard analysis, 32P-labelled ligand on B13Rα1 cells; unlabelled competitor H/V-D/A
T4 construct: whole, on cells; also called Ba/F3 cells stably transfected with human gp130 and hIL-11Rα; Ba/F3 cells co-transfected with human IL-11Rα and human gp130
T4 sequence (looked up) 1: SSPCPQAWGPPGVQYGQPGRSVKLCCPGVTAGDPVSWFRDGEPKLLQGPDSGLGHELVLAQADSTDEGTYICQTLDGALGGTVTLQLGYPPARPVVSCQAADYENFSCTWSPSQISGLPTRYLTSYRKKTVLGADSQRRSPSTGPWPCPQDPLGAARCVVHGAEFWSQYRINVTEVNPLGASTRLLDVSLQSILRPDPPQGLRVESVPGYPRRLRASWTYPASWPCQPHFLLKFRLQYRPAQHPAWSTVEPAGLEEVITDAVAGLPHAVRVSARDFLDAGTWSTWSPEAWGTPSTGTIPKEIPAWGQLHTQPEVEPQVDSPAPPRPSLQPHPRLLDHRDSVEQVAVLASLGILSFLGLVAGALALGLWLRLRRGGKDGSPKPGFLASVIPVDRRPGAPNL
T4 sequence (looked up) 2: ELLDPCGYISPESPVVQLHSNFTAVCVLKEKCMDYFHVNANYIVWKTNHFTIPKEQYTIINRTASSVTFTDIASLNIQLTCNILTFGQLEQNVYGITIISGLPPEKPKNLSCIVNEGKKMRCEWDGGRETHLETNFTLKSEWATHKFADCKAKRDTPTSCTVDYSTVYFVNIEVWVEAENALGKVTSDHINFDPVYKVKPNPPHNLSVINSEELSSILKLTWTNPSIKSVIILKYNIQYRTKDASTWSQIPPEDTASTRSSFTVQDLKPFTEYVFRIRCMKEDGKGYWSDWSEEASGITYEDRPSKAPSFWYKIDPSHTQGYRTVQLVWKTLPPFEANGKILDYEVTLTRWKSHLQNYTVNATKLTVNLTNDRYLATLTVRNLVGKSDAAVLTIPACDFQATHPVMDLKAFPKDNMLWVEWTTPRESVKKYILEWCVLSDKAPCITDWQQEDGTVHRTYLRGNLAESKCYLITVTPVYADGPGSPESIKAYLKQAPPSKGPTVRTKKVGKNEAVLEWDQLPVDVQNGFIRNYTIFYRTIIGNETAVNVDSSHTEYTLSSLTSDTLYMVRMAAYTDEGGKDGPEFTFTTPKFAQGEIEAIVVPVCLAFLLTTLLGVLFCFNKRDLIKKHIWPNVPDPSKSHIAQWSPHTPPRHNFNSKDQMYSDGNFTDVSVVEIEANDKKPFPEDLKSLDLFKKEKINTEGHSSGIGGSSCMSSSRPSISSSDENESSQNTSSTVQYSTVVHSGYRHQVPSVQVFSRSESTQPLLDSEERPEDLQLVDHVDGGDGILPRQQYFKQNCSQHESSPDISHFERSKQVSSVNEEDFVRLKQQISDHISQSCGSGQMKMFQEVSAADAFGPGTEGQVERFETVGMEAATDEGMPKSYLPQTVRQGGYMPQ

[6] = target: T4, human IL-11 receptor (human IL-11Rα and …); assay: Scatchard analysis, 32P-labelled ligand on B13Rα1 cells; unlabelled competitor FPΔIL-11
[7] = target: T3, murine IL-11Rα on 7TD1 cells (Class 1, …); assay: Scatchard analysis, 32P-labelled ligand on 7TD1 cells, Class 1 sites; unlabelled competitor H/V-D/A
Experimental: as §1

[8] = target: T3, murine IL-11Rα on 7TD1 cells (Class 1, …); assay: Scatchard analysis, 32P-labelled ligand on 7TD1 cells, low affinity sites
Experimental: as §1

[9] = target: T2, fusion protein of human IL-11R and IL-2 …; assay: SPR, immobilized human IL-11Rα-IL-2
Experimental: as §2, §3

[10] = target: T1, murine high affinity IL-11 receptor …; assay: Scatchard analysis, 32P-labelled ligand on 7TD1 cells, Class 2 sites; unlabelled competitor H/V-D/A
Experimental: as §1

B1: commercial recombinant human IL-11 (rhIL-11, R&D) (ligand)
chain: PGPPPGPPRVSPDPRAELDSTVLLTRSLLADTRQLAAQLRDKFPADGDHNLDSLPTLAMSAGALGALQLPGVLTRLRADLLSYLRHVQWLRRAGGSSLKTLEPELGTLQARLDRLLRRLQLLMSRLALPQPPPDPPAPPLAPPSSAWGGIRAAHAILGGLHLTLDWAVRGLLLLKTRL
- concentration required to induce half-maximal proliferation (EC50) of 7TD1 cells [1]: 15 ng/mL

- Kd [3]: 165 nM
- koff [3]: 0.000975 s⁻¹
- kon [3]: 5900 M⁻¹ s⁻¹
- Kd [5]: 0.4 nM
- Kd [6]: 0.44 nM
B2: FPΔIL-11 (parental, non-mutated recombinant human IL-11 with Flag tag and phosphorylation site, deleted of the first 31 N-terminal amino acids) (ligand)
chain: MDYKDDDDKEGRRASVASPDPRAELDSTVLLTRSLLADTRQLAAQLRDKFPADGDHNLDSLPTLAMSAGALGALQLPGVLTRLRADLLSYLRHVQWLRRAGGSSLKTLEPELGTLQARLDRLLRRLQLLMSRLALPQPPPDPPAPPLAPPSSAWGGIRAAHAILGGLHLTLDWAVRGLLLLKTRL
notes: Produced in E. coli BL21(DE3); monomer by gel filtration; in SPR it was unlabelled; also called parental FPΔIL-11; parent IL-11
- concentration required to induce half-maximal proliferation (EC50) of 7TD1 cells [1]: 15 ng/mL
- Kd [2]: 0.65 nM
- Kd [4]: 7.2 nM

- Kd [5]: 0.71 nM
- fold higher koff than parental FPΔIL-11 [9]: 14 fold
- fold higher kon than parental FPΔIL-11 [9]: 35 fold
- fold lower Kd than FPΔIL-11 [9]: 3 fold
- Kd [6]: 0.72 nM
B3: H/V-D/A mutein (FPΔIL-11 with H182V and D186A) (ligand)
chain: B2 chain with H168V, D172A
notes: in SPR it was unlabelled; also called H182V+D186A; mutant FPΔIL-11
- Kd [7]: 2.7 nM
- concentration required to induce half-maximal proliferation (EC50) of 7TD1 cells [1]: 0.03 ng/mL
- fold lower EC50 of 7TD1 proliferation than wild-type IL-11 [1]: 400 fold
- fold higher affinity than FPΔIL-11 [8]: ~3 fold
- Kd [10]: 0.6 nM
